Where a chain is given by its changes, count along the chain named.
B1: IL6RPMP103A4 (VHH)
VHH: EVQLVESGGGLVQPGGSLRLSCAASGSIFSINTMGWYRQVPGKQRELVATVRSGSITNYADSVQDRFTITRDIDENTVYLQMNSLKPEDTAVYYCLTRASVPGRGYQDYWGQGTQVTVSS
B2: IL6RPMP108F7 (VHH)
VHH: EVQLVESGGGLVQAGGSLRLSCTASGRTFSDYDMGWFRQAPGKERECVAVIDTNGDNTLTVGSVKGRFAISRDNAKNTVYLQMNSLLPEDTAVYTCAAGAWSSLRSTAANYWGQGTQVTVSS
B3: IL6RPMP108C10 (VHH)
VHH: B2 VHH with A14P
B4: IL6RPMP101A3 (VHH)
VHH: B2 VHH with S17P, S30T, C47V, V50I, R72S, S103A, S106R, T107S, A108V
B5: IL6RPMP101G3 (VHH)
VHH: B2 VHH with V50I, T60I, R72S, A100V, S106H
B6: IL6RPMP120C10 (VHH)
VHH: EVQLVESGGGLVQAGGSLSLSCATSGRTISDDTMAWFRQAPGKEREFVAIITFNGARTHYSDSVRDRFTISRDNAKNTVYLQMNSLKSEDTAVYYCAASTKYYSSTYNYIHPAFYDIWGQGTQVTVSS
B7: IL6RPMP101D6 (VHH)
VHH: B2 VHH with V50I, T60I, R72S, A100V, S106H
B8: IL6RPMP101B2 (VHH)
VHH: B2 VHH with S30T, C47V, V50I, R72S, S103A, S106R, T107S, A108V
B9: IL6RPMP107B4 (VHH)
VHH: EVQLVESGGGLVQAGGSLRLSCVASGLRLNMHRMGWFRQAPGKEREFVARIFTDDGDSYYADSVQGRFTISGDNAKNTVYLQMNSLKPEDTGVYFCAAGYMSGAESPIGYDNWGQGTQVTVSS
B10: IL6RPMP106D6 (VHH)
VHH: EVQLVESGGGLVQAGGSLRLSCAASGFTFDDYAIGWFRQAPGKEREGVSCMISSDGSTYYADSVKGRFTISSDNAKNTVYLQMDSLKPEDTAVYYCAADLSLYGCYVGDRDLYDYDYWGQGTQVTVSS
B11: IL6RPMP104E4 (VHH)
VHH: EVQLVESGGGTVQAGGSLKLSCAASGRTFTNYAMGWFRQAPGKEREFVAAIAYATHFADSVKGRFTISRGNAKNTVYLQMNSLKPEDTAVYYCAADLSLSKMVSKITSDMDYWGKGTLVTVSS
B12: IL6RPMP102G3 (VHH)
VHH: EVQLVESGGGLVQAGGSLRLSCAASGSIDRINAMGWYRQAPGKQRDFLAVITDGDKTLYADSVKGRFTISNDNAKNTVYLQMNSLKPEDTAVYYCNAYQAGWGDYWGQGTQVTVSS
B13: IL6RPMP101G1 (VHH)
VHH: EVQLVESGGGLVQPGGSLRLSCAASGGTLDYYAIGWFRQAPGKEREGVSCISSSDGSTYYASSVKGRFTVSRDKAKNTVYLQMNSLKPEDTAVYYCAFVFTTAQAMGVPNNPYEYDFWGQGTQVTVSS
B14: IL6RPMP103B2 (VHH)
VHH: EVQLVESGGGLVQPGGSLRLSCAASGSTFSINMMAWYCQAPGKQRELVASISSGGGINYADSVKGRFTISRDYAENSVDLQMNSLKPEDTAVYYCNARGTYLNGDHYSTNYNSWGQGTQVTVSS
B15: IL6RPMP100D11 (VHH)
VHH: EVQLVESGGGLVQAGDSLRLSCLASGRSFKDDAMGWFRQAPGKEREFVSGIDWRGNIVDAESVKGRFTISRENAKNTLYLQMNHLKPEDTAVYYCAASSVFSDLRYRKNPKYWGQGTQVTVSS
B16: IL6RPMP103A2 (VHH)
VHH: B1 VHH with R66Q
B17: IL6RPMP104A8 (VHH)
VHH: B2 VHH with C47F, D56G, N57H, R72S, L87V, S106K, N110S
B18: IL6RPMP104E7 (VHH)
VHH: EVQLVESGGGLVQAGGSLRLSCAAGGSIFSINAMGWYRQAPGKQRELVASITSGGSTTYADSVKGRFTISRDNAKDTVYLQMNSLKPEDTAVYYCNAHIRFPFPNDYWGQGTQVTVSS
B19: IL6RPMP104B9 (VHH)
VHH: B2 VHH with V50I, T60I, R72S, A100V, S106H
B20: IL6RPMP103A5 (VHH)
VHH: EVQLVESGGGLVQAGDSLRLSCVASGLPFSTLHMGWFRQAPGKEHESVSAISSDGGSEYYAGSVKGRFTISRDNAKNTVYLQMNSLKPEDTAVYYCAADPRRIGANIKYSDYWGQGTQVTVSS
B21: IL6RPMP101G11 (VHH)
VHH: EVQLVESGGGLVQPGGSLRLSCAASASGFTLDYYAIGWFRQAPGKEREGVSCISSTDGSTYYADSVKGRFTISRDNAKNTVYLQMNSLNPEDTGVYTCAAVLTTAQAMGVPTRSYEYDYWGQGTQVTVSS
B22: IL6RPMP101F6 (VHH)
VHH: EVQLVESGGGLVQAGGSLRLSCAASGSIFSIKAMGWYRQAPGKQRELVARITSGGSTYYADSVKGRFTISRDNAKNTVYLQMNSLKPEDTAVFYCNAIVTDSDYDLGNDYWGQGTQVTVSS
B23: IL6RPMP103D7 (VHH)
VHH: EVQLVESGGGLVEAGGSLRLSCAAAGRTLSSYSMAWFRQAPGKEREFVAIIRGNPSRTYHSDSVKGRFTASRDNAKNTVYLQMNRLEPEDTAVYYCAADPPPFASDYSAPQSYDYWGQGTQVTVSS
B24: IL6RPMP101B3 (VHH)
VHH: EVQLVESGGGLVQAGGSLRLSCAASGSIFRINAMGWYRQAPGKQRELVAAAISGGSTNYADFVKGRFTISRDNAKNTVYLQMNSLKPEDTAVYYCNALVVSHNYSDYVPFPDDYWGQGTQVTVSS
B25: IL6RPMP107C3 (VHH)
VHH: EVQLVESGGGLVQAGGSLNLSCNASGDIGSINAMGWHRQAPGQQREWVAVITDTDSTIYPDSVKGRFAISRDGAKNTVHLRMSSLKPEDTAVYYCNAYQAGWGDYWGQGTQVTVSS
B26: IL6RPMP105D3 (VHH)
VHH: B24 VHH with V5E

target: soluble IL-6R in cynomolgous plasma (cynomolgus monkey, UniProt A0A2K5WN54); assay: ELISA 2, periplasmic extract; competitor IL-6; cyno plasma
Description: (§1) In this ELISA, plasma was used as a source of native soluble IL-6R. By this assay, we aimed to confirm the alphascreen results and to get a view on the cross-reactivity of the clones towards cynomolgous IL-6R. Human plasma (ELISA 1 and ELISA 3) or cynomolgous plasma (ELISA 2) were pre-incubated with a dilution of the periplasmic extract of the clones together with human IL-6 (50 ng/mL). Subsequently, plasma soluble IL-6R was captured on a B-N12 coated plate and bound IL-6 was detected using anti-IL-6 antibody BAF206 and streptavidin-HRP (ELISA 1 and ELISA 2). The ELISA signal dropped when the Nanobody clone could compete with IL-6 for binding to soluble IL-6R. ELISA 3 was a parallel ELISA in which the detection antibody was replaced by anti-IL-6R antibody BAF227 to exclude false positive competitors, which actually compete with B-N12 (e.g. family 2). Depicted in Table C-5 is the ratio of the OD450 value of the test sample versus the blank OD450 (mock sample). Clones were ordered based on ELISA 1 data.

Compared with B1, B2 is lower in OD450 ratio sample/blank: 0.916 for the first, 0.8 for the second.

Going from B3 to B4, the OD450 ratio sample/blank falls from 0.795 to 0.687.

Going from B5 to B6, the OD450 ratio sample/blank falls from 0.773 to 0.0351.

Going from B7 to B8, the OD450 ratio sample/blank falls from 0.731 to 0.727.

Going from B9 to B10, the OD450 ratio sample/blank rises from 0.918 to 1.13.

First: B11
Second: B12
The OD450 ratio sample/blank of the first is lower: 0.838 for the first, 1.32 for the second.

First: B13
Second: B14
The OD450 ratio sample/blank of the first is lower: 0.0937 for the first, 0.81 for the second.

Going from B15 to B16, the OD450 ratio sample/blank rises from 0.962 to 1.09.

Compared with B17, B18 is higher in OD450 ratio sample/blank: 0.725 for the first, 0.993 for the second.

Going from B19 to B20, the OD450 ratio sample/blank rises from 0.766 to 0.859.

Going from B21 to B22, the OD450 ratio sample/blank falls from 0.0538 to 0.0273.

Compared with B23, B24 is higher in OD450 ratio sample/blank: 0.0821 for the first, 1.05 for the second.

First: B25
Second: B26
The OD450 ratio sample/blank of the first is lower: 0.904 for the first, 0.995 for the second.

target: T1, native soluble IL-6R in human plasma (human, UniProt P08887); assay: ELISA 3, periplasmic extract; competitor BN-12; human plasma
Description: as §1

Compared with B1, B2 is lower in OD450 ratio sample/blank: 1.03 for the first, 1.02 for the second.

Compared with B3, B4 is lower in OD450 ratio sample/blank: 1.04 for the first, 0.946 for the second.

Going from B5 to B6, the OD450 ratio sample/blank rises from 0.892 to 1.01.

First: B7
Second: B8
The OD450 ratio sample/blank of the first is higher: 0.948 for the first, 0.909 for the second.

Compared with B9, B10 is lower in OD450 ratio sample/blank: 1.04 for the first, 1 for the second.

Compared with B11, B12 is lower in OD450 ratio sample/blank: 1.03 for the first, 0.968 for the second.

Compared with B13, B14 is higher in OD450 ratio sample/blank: 0.639 for the first, 1.02 for the second.

Going from B15 to B16, the OD450 ratio sample/blank rises from 0.969 to 0.993.

Compared with B17, B18 is higher in OD450 ratio sample/blank: 0.973 for the first, 1.01 for the second.

Going from B19 to B20, the OD450 ratio sample/blank falls from 1 to 0.943.

Compared with B21, B22 is higher in OD450 ratio sample/blank: 0.468 for the first, 0.947 for the second.

Compared with B23, B24 is lower in OD450 ratio sample/blank: 0.98 for the first, 0.972 for the second.

Compared with B25, B26 is lower in OD450 ratio sample/blank: 1.06 for the first, 1.01 for the second.

target: T1, native soluble IL-6R in human plasma; assay: ELISA 1, periplasmic extract; competitor IL-6; human plasma
Description: as §1

Going from B1 to B2, the OD450 ratio sample/blank rises from 1.04 to 1.05.

First: B3
Second: B4
The OD450 ratio sample/blank of the first is lower: 1.07 for the first, 1.08 for the second.

Compared with B5, B6 is lower in OD450 ratio sample/blank: 1.08 for the first, 0.139 for the second.

B7 and B8 are the same in OD450 ratio sample/blank: 1.09 for the first, 1.09 for the second.

Going from B9 to B10, the OD450 ratio sample/blank rises from 1.2 to 1.27.

First: B11
Second: B12
The OD450 ratio sample/blank of the first is lower: 1.34 for the first, 1.76 for the second.

Going from B13 to B14, the OD450 ratio sample/blank rises from 0.148 to 1.76.

First: B15
Second: B16
The OD450 ratio sample/blank of the first is lower: 1.9 for the first, 2.04 for the second.

B17 and B18 are the same in OD450 ratio sample/blank: 2.04 for the first, 2.04 for the second.

Going from B19 to B20, the OD450 ratio sample/blank rises from 2.06 to 2.12.

Compared with B21, B22 is lower in OD450 ratio sample/blank: 0.227 for the first, 0.0703 for the second.

First: B23
Second: B24
The OD450 ratio sample/blank of the first is lower: 0.355 for the first, 0.402 for the second.

Going from B25 to B26, the OD450 ratio sample/blank rises from 0.438 to 0.457.

From US10618964B2, “Nanobody against IL-6R” (Ablynx N.V., dated 2020)
